# From patent publication US20250215403A1, “Compositions and Methods for Cardiac Tissue Regeneration” (Temple University - Of The Commonwealth System Of Higher …, priority 2022, published 2025)
# B1: PSAT1 modRNA: modified mRNA with N1-methylpseudouridine, transcribed in vitro, encoding phosphoserine aminotransferase 1 (ORF SEQ ID NO: 1, RNA SEQ ID NO: 2) (nucleic acid)
# chain: AUGGAAGCCACCAAGCAAGUGGUUAACUUUGGGCCCGGGCCUGCCAAGCUGCCACACUCGGUAUUGUUGGAGAUCCAGAAGCAGCUACUAGACUACAGAGGACUCGGCAUCAGUGUGCUCGAAAUGAGUCACAGGUCAUCAGAUUUUGCCAAGAUUAUUGGCAAUACAGAGAAUCUUGUGAGGGAAUUGCUAGCUGUUCCCAACAACUACAAGGUGAUCUUUGUACAAGGAGGUGGGUCUGGCCAGUUCAGUGCUGUCCCCUUAAAUCUGAUUGGCCUGAAAGCUGGAAGGAGUGCUGACUACGUGGUGACCGGAGCUUGGUCAGCUAAGGCUGCGGAAGAAGCCAAGAAGUUUGGAACGGUGAACAUUGUCCACCCUAAACUUGGAAGUUACACAAAAAUUCCAGACCCAAGCACCUGGAACCUCAACCCGGACGCCUCCUAUGUAUACUUCUGUGCAAACGAGACUGUGCACGGGGUGGAGUUUGACUUCGUACCUGACGUCAAGGGAGCGGUGCUGGUCUGUGACAUGUCCUCAAACUUCUUAUCCAGGCCGGUGGAUGUUUCCAAGUUUGGUGUGAUUUUCGCUGGUGCUCAGAAGAAUGUUGGCUCUGCCGGGGUGACGGUGGUGAUUGUCCGGGAUGACCUGCUGGGGUUCUCGCUCAGAGAGUGCCCAUCAGUCCUUGACUACAAAGUGCAGGCUGGGAACAACUCUUUGUAUAACACACCUCCGUGCUUCAGCAUCUACGUCAUGGGCAUGGUCCUGGAAUGGAUCAAGAACAACGGCGGGGCCGCAGCCAUGGAGAAGCUCAGCUCCAUCAAAUCCCAAAUGAUUUAUGAGAUCAUUGAUAAUUCUCAAGGAUUUUAUGUAUGCCCAGUGGAGCGCCAGAAUAGAAGCAGGAUGAACAUCCCAUUUCGCAUUGGCAACGCCAAAGGAGACGAAGCUUUGGAAAAGCGGUUUCUUGACAAGGCGGUAGAACUCAACAUGAUCUCCUUGAAGGGGCACAGGUCAGUGGGAGGCAUUCGUGCCUCUCUGUAUAACGCUGUCACAACCGAAGACGUUGAGAAGCUGGCGGCCUUCAUGAAGAAUUUCUUGGAGAUGCAUCAGCUGUGA
# modifications: N1-methylpseudouridine
# Tests used:
# [1] = HPLC measurements of oxidative stress (ROS, GSH/GSSG, NADPH, NADH) in heart post-MI; assay type: in vivo, mouse
# Method: ROS production in heart tissue was measured using HPLC for dihydroethidium (DHE) oxidation products (Magadum A., et al., Circulation. 2020, 141 (15): 1249-1265). Immediately after harvesting hearts, a 20 mg segment of heart tissue was cut into small pieces and incubated with DHE (100 μM) in PBS containing DTPA (100 μM) at 37° C. for 30 min. The sample was washed with PBS/DTPA, extracted with acetonitrile (500 μl) and briefly sonicated (3× 30 sec, 8W). After centrifugation (13,000×g, 10 min at 4° C.), the supernatant was collected and dried under vacuum, and pellets stored at −20° C. in the dark until analysis. Samples were resuspended in 120 μl PBS-DTPA and injected into the HPLC system. The superoxide-specific DHE oxidation product 2-hydroxyethidine (EOH) was quantified by comparison of the peak signal between samples and standard solutions under identical chromatographic conditions, and expressed as EOH/mg tissue.
# The level of glutathione (GSH) in heart tissue was measured by an HPLC method with electrochemical detection, as previously described (Magadum A., et al., Circulation. 2020, 141 (15): 1249-1265). Heart samples were homogenized in a 100 mM acetate buffer (pH 5.4, containing 10 μM DTPA). A small aliquot was used to quantify total protein. The remaining sample was deproteinized with 10% TCA, centrifuged at 10,000×g for 5 min at 4° C., the supernatant filtered (0.45 μm) and stored at −80° C. Samples were injected onto a C18 column (Phenomenex C18, 3 μm, 150×4.6 mm) and eluted at 0.5 ml/min using an isocratic mobile phase solution (25 mM NaH2PO4, 1 mM 1-octane sulfonic acid, 6% acetonitrile, pH 2.6, H2O with phosphoric acid). GSH levels were quantified by comparison to standards subjected to the same HPLC conditions. Glutathione disulfide (GSSG) levels were indirectly determined by its enzymatic reduction with glutathione reductase (0.6 U/ml plus 0.2 mg/ml NADPH) for 30 min. The reaction was stopped by adding 5% TCA on ice. The GSH levels were normalized by the amount of protein. GSSG quantification was achieved by the difference between total reduced GSSG to total GSH in each sample.
# GSK3β = assay: Western blot of Ser9 phosphorylation of GSK3β in NRVM; assay type: cell-based, rat; details: compared to Luc modRNA
# Method: Total protein was isolated from the respective cells or tissues at given time points. In brief, equal amounts of protein were resolved by SDS-PAG Electrophoresis system in 4%-15% Mini-PROTEAN TGX stain-free gels (Bio-Rad) and blotted onto nitrocellulose membranes (Bio-Rad). The membranes were blocked in Intercept® (TBS) blocking buffer (LI-COR) diluted 1:1 with PBS for 1 hour at room temperature and washed with PBST (1% Tween® 20, pH 7.4) for 10 min. Primary antibodies diluted in blocking buffer were added and incubated overnight at 4° C. Anti-PSAT1 (1:1,000, Invitrogen, #PA5-22124), anti-Flotillin 1 (1:1,000, Cell Signaling, #3253), anti-pSer9GSK3B (1:1,000, Cell Signaling, #9336), anti-GSK3B (1:1,000, Cell Signaling, #9315), and anti-β-actin (1:1000, Santa Cruz, #sc-47778) antibodies were used. The next day, membranes were washed with PBST (3×10 min). Anti-rabbit and anti-mouse IRDye 800CW secondary antibodies (LI-COR) were applied for 1 hr at room temperature. The membranes were washed with PBST (3×10 min) and antigen or antibody complexes were visualized and quantified using Odyssey Fc Imaging System (LI-COR Biosciences, model number 2800).
# β-catenin = β-catenin immunostaining in CM nucleus and cytoplasm; assay type: cell-based, rat; details: NRVM; 48 hours after modRNA
# Method: Mice hearts were harvested, weighed, and fixed in 4% PFA/PBS overnight on shaker and then washed with PBS for 1 hour and incubated in 30% sucrose/PBS at 4° C. for 12-18 hours. Hearts were then fixed in OCT and frozen at −80° C. (Magadum A., et al., Circulation. 2020, 141 (15): 1249-1265). Transverse heart sections (6-8 μm) were made using a cryostat. Frozen sections were rehydrated in PBS for 5-10 min followed by permeabilization with PBS with 0.1% Triton™ X100 (PBST) for 7-8 min. Heart sections were then treated with 3% H2O2 for 5 min and washed (3×5 min) with PBST. The samples were then blocked with PBS+10% Donkey normal serum+0.1% Triton™ X100 (PBSST) for 1 hour at room temperature. Primary antibodies (see complete list of primary antibodies used for this Example in Table 2 below) diluted in PBST were added and incubated overnight at 4° C. […] For immunostaining with wheat germ agglutinin (WGA) for CM size quantification, images were captured at 40× magnification, and ImageJ was used to determine the area of each cell. Quantitative analyses involved counting of multiple fields from 5-8 mouse hearts per group, and 3-4 sections/heart (˜50 cells per field assessed, for a total ˜250 cells per sample). […] BrdU positive CMs were counted in multiple fields from three independent samples per group and 3 sections/heart. The total number of CMs counted was ˜1-1.5×10^3 CMs per section. […]
molecule,measurement,setting,value
B1,GSH/GSSG ratio,[1]; heart post-MI,significantly increased
same,levels of superoxide and other ROS,"[1]; heart two days post-MI, DHE probe",reduced
same,NADH level,[1]; two days post-MI,increased
same,NADPH level,[1]; two days post-MI,increased
same,phosphorylation of GSK3β at Ser9,GSK3β,induces
same,stabilized β-catenin localisation to CM nuclei,β-catenin,translocated
same,β-catenin stabilization,β-catenin,significantly induced
